Where no end group is shown, it is not given here. [ ]: non-standard residue; d: D form. Aib = CC(C)(N)C(=O)O

This assay addresses human housekeeping core (20S) proteasome purified from erythrocytes (human), P60900. Description: cell-based or functional assay.

B1: Tat5-8,9 Aib (peptide)
peptide: GRKKRRQ[Aib]GQRRKKRG
The molecule B1 had an AC50, ChT-L activity (Suc-LLVY-MCA) of 183 nM and a Max activation fold, ChT-L activity of 8.9 fold.

These data come from patent US20220332758A1, “PEPTIDE-BASED COMPOSITIONS AND METHODS FOR TREATING ALZHEIMER'S DISEASE” (Board of Regents, The Universityof Texas System, priority 2019, published 2022).
